The source of these data is patent publication US20050203025A1.

The target of experiment [1] is desmocollin (on Fsk-7.1 mouse mammary epithelial cells) (mouse). Kind of experiment: cell-based or functional assay.
Experiment [2] addresses desmoglein (on Fsk-7.1 mouse mammary epithelial cells) (mouse). Kind of experiment: cell-based or functional assay.

As for H-LTAFATTPDG-OH [H-…-OH (SEQ ID NO: 5284)], in experiment [1], the % (single cells + clusters <4 cells); alveolar aggregate formation of Fsk-7.1 cells, 24 hr, no desmoglein peptide is 28% and the % (single cells + clusters <4 cells); alveolar aggregate formation of Fsk-7.1 cells, 24 hr, together with H-…-OH came to 36.5%.
Ac-CRALC-NH2 (also: cyclic peptide, bond of cyclisation not given here) [Ac-CRALC-NH2 (SEQ ID NO: 4236)]: in experiment [2], the % (single cells + clusters <4 cells); alveolar aggregate formation of Fsk-7.1 cells, 24 hr, no desmocollin peptide was 12.9%; the % (single cells + clusters <4 cells); alveolar aggregate formation of Fsk-7.1 cells, 24 hr, together with Ac-CFATC-NH2 was found to be 33.6%; the % (single cells + clusters <4 cells); alveolar aggregate formation of Fsk-7.1 cells, 24 hr, together with Ac-CYASC-NH2 was 37.2%; the % (single cells + clusters <4 cells); alveolar aggregate formation of Fsk-7.1 cells, 24 hr, together with Ac-CYATC-NH2 was determined as 19.6%.
Turning to H-LTGYALDSRG-OH [H-…-OH (SEQ ID NO: 5283)], in experiment [2], the % (single cells + clusters <4 cells); alveolar aggregate formation of Fsk-7.1 cells, 24 hr, no desmocollin peptide worked out at 21.7%; the % (single cells + clusters <4 cells); alveolar aggregate formation of Fsk-7.1 cells, 24 hr, together with Ac-CFATC-NH2 worked out at 39.5%; the % (single cells + clusters <4 cells); alveolar aggregate formation of Fsk-7.1 cells, 24 hr, together with Ac-CYASC-NH2 stood at 57.2%; the % (single cells + clusters <4 cells); alveolar aggregate formation of Fsk-7.1 cells, 24 hr, together with Ac-CYATC-NH2 was found to be 58.6%. The % (single cells + clusters <4 cells); alveolar aggregate formation of Fsk-7.1 cells, 24 hr, together with H-…-OH in experiment [2] came out at 36.5%.
With Ac-CYASC-NH2 (also: cyclic peptide, bond of cyclisation not given here) [Ac-CYASC-NH2 (SEQ ID NO: 5156)], in experiment [1], the % (single cells + clusters <4 cells); alveolar aggregate formation of Fsk-7.1 cells, 24 hr, no desmoglein peptide amounted to 12.9%; the % (single cells + clusters <4 cells); alveolar aggregate formation of Fsk-7.1 cells, 24 hr, together with Ac-CRALC-NH2 was 37.2%; the % (single cells + clusters <4 cells); alveolar aggregate formation of Fsk-7.1 cells, 24 hr, together with H-…-OH was 57.2%.
As for Ac-CYATC-NH2 (also: cyclic peptide, bond of cyclisation not given here) [Ac-CYATC-NH2 (SEQ ID NO: 4683)], in experiment [1], the % (single cells + clusters <4 cells); alveolar aggregate formation of Fsk-7.1 cells, 24 hr, no desmoglein peptide was 18.2%; the % (single cells + clusters <4 cells); alveolar aggregate formation of Fsk-7.1 cells, 24 hr, together with Ac-CRALC-NH2 came out at 19.6%; the % (single cells + clusters <4 cells); alveolar aggregate formation of Fsk-7.1 cells, 24 hr, together with H-…-OH amounted to 58.6%.
For Ac-CFATC-NH2 (also: cyclic peptide, bond of cyclisation not given here) [Ac-CFATC-NH2 (SEQ ID NO: 5009)], in that order: 13.1%, 33.6% and 39.5%.
